Data published in article PMC5353710, “Structural insights into the γ-lactamase activity and substrate enantioselectivity of an isochorismatase-like hydrolase from Microbacterium hydrocarbonoxydans” (Scientific Reports, 2017).

Molecular target: isochorismatase-like hydrolase Mh33H4-5540 from Microbacterium hydrocarbonoxydans (Microbacterium hydrocarbonoxydans)
Experiment: SEC; gel filtration of purified MhIHL (Supplementary Fig. S1); conditions of this run not told in the main text

stoichiometry N: 2
Substance: isochorismatase-like hydrolase Mh33H4-5540 from Microbacterium hydrocarbonoxydans (enzyme)
